# Assay results from patent US20230212587A1, “Mutant Hydroxyphenylpyruvate Dioxygenase Polypeptide, Encoding Gene Thereof and Use Therefor” (Beijing Dabeinong Biotechnology Co., Ltd., priority 2019, published 2023).
# Residue numbers refer to the chain shown, from its start. Names and notes keep the numbering of the source.
# B1: BnHPPD-02: native Brassica napus HPPD, SEQ ID NO: 87 (protein, listed as Brassica napus)
# chain: MGHENAAVCETQQHDDAASPGFKLVGFSKFVRKNPKSDKFKVKRFHHIEFWCGDATNVSRRFSWGLGMRFSAKSDLSTGNMVHASYLLTSGDLRFLFTAPYSPSLSAGEAQPSATASIPSFDHASCRSFFSSHGLGVRAVAIEVEDAESAFSISVANGAVPSSPPNVLNGAVTIAEVKLYGDVVLRYVSYYNGTVSFLPGFESVDDTSSFPLDYGIRRLDHAVGNVPELGPALTYLAGFTGFHQFAEFTADDVGTAESGLNSAVLANNDEMVLLPINEPVHGTKRKSQIQTFLEHNEGAGLQHLALMSEDIFRTLREMRKRSGVGGFDFMPSPPPTYYKNLKKRVGDVLSEEQIEECEELGILVDRDDQGTLLQIFTKPLGDRPTIFIEIIQRVGCMKRDEEGKVYQSGGCGGFGKGNFSELFKSIEEYEKTLEAKQLVG
# modifications: BnHPPD Amino Acid Sequence
# B2: BnHPPDm-F372A-02: Brassica napus HPPD mutant F372A, SEQ ID NO: 90 (protein)
# chain: B1 chain with F376A
# modifications: BnHPPDm-F372A Amino Acid Sequence
# B3: CaHPPD-F372A-02: Cicer arietinum HPPD mutant F372A, SEQ ID NO: 84 (protein)
# chain: MGTIETQTGFKLVGFNNFVRTNPKSDRFKVKRFHHVEFWCPDATNTARRFSWGLGMPIVAKSDLSTGNQTHASYLLRSGDLNFLFTAAYSPSISLSAPHPTASIPSFSAPTSFAFSASHGLGVRAVAIEVDDAEFAYTTSVNHGAIPSSPPVVLDNRVKLAEVQLYGDVVLRYVSYNDPIETSNPNPNHWFLPGFEPVEETSSNQSIDFGIQRLDHAVGNVPELSSALNYVKQFTGFHEFAEFTAEDVGTSESGLNSTVLANNEETVLLPMNEPVYGTKRKSQIQTYLEHNEGAGLQHLALMSNDIFKTLREMRKRSGIGGFEFMPSPPPTYYSNLKKRVGDVLNDEQIKECEELGILVDKDDQGTLLQIATKPVGDRPTIFIEIIQRVGCMLKDDEGKEYQKGGCGGFGKGNFSELFKSIEEYEKTLEIKRTA
# modifications: CaHPPDm-F372A Amino Acid Sequence
# B4: ZmHPPD-02: native Zea mays HPPD, SEQ ID NO: 17 (protein)
# chain: MPPTPTAAAAGAAVAAASAAEQAAFRLVGHRNFVRFNPRSDRFHTLAFHHVELWCADAASAAGRFSFGLGAPLAARSDLSTGNSAHASLLLRSGSLSFLFTAPYAHGADAATAALPSFSAAAARRFAADHGLAVRAVALRVADAEEAFRTSVAAGARPAFGPVDLGRGFRLAEVELYGDVVLRYVSYPDGAAGEPFLPGFEGVASPGAADYGLSRFDHIVGNVPELAPAAAYFAGFTGFHEFAEFTTEDVGTAESGLNSMVLANNSENVLLPLNEPVHGTKRRSQIQTFLDHHGGPGVQHMALASDDVLRTLREMQARSAMGGFEFMAPPTSDYYDGVRRRAGDVLTEAQIKECQELGVLVDRDDQGVLLQIFPKPVGDRPTLFLEIIQRIGCMERDEKGQEYQKGGCGGFGKGNFSQLFKSIEDYEKSLEAMQAAAAATAQGS
# modifications: Zea mays; ZmHPPD Amino Acid Sequence (Zea mays)
# B5: HaHPPD-02: native Helianthus annuus HPPD, SEQ ID NO: 93 (protein, listed as Helianthus annuus)
# chain: MGTEATVAAVVAGDESDHPTSAFKLVGFKNFIRTNPMSDKFTVKNFHHIEFWCSDATNTARRFSWGLGMPIIFKSDLSTGNSTHASYLLRSGHLNFLFTAPYSPSISPTTTTASIPTFSHSASRHFTATHGLAVRAIAVEVEDAETAFAVSVANGAKPSSPPVTLGHNDVVLSEVKLYGDVVLRYVSYKNNTNNNNNNDNDNYIFLPGFEAMDKTSSFQELDYGIRRLDHAVGNVPELAPAVDYVKSFTGFHEFAEFTAEDVGTSESGLNSVVLACNSEMVLIPMNEPVYGTKRKSQIQTYLEHNEGAGVQHLALASEDIFRTLREMRKRSGVGGFEFMPSPPPTYYRNLKSRAGDVLSDEQIKECEELGILVDRDDQGTLLQIFTKPVGDRPTIFIEIIQRVGCMVKDDEGKVQQKAGCGGFGKGNFSELFKSIEEYEKTLEARSTTAAA
# modifications: HaHPPD Amino Acid Sequence
# B6: HaHPPDm-F372A-02: Helianthus annuus HPPD mutant F372A, SEQ ID NO: 96 (protein)
# chain: B5 chain with F385A
# modifications: HaHPPDm-F372A Amino Acid Sequence
# Test system: Arabidopsis thaliana T1 plants
# Assay: Topramezone tolerance of transgenic Arabidopsis thaliana T1 plants (pesticide damage grade by bleached leaf area, score, resistance evaluation)
# Assay type: in vivo
# Conditions: HPPDs from different species; number of plants (of 16) in this grade; topramezone 25 g ai/ha (1x), 7 DAT
# Outline: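 Herbicide tolerance was judged per plant on a bleaching scale (grade 0 no bleaching to grade 3 fully bleached) 7 DAT. Topramezone doses were 0, 25, 50 and 100 g ai/ha on 18-day-old T1 and wild-type plants.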
Molecule,Classification and statistics of pesticide damage grade Grade 0,Classification and statistics of pesticide damage grade Grade 1,Classification and statistics of pesticide damage grade Grade 2,Classification and statistics of pesticide damage grade Grade 3
B1,0,0,0,16
B2,0,4,12,0
B3,0,13,3,0
B4,0,0,0,16
B5,0,0,0,16
B6,0,8,8,0

# Same assay, conditions: HPPDs from different species; number of plants (of 16) in this grade; topramezone 100 g ai/ha (4x), 7 DAT
Molecule,Classification and statistics of pesticide damage grade Grade 0,Classification and statistics of pesticide damage grade Grade 1,Classification and statistics of pesticide damage grade Grade 2,Classification and statistics of pesticide damage grade Grade 3
B1,0,0,0,16
B2,0,0,0,16
B3,0,0,0,16
B4,0,0,0,16
B5,0,0,0,16
B6,0,2,12,2

# Same assay, conditions: HPPDs from different species; score for pesticide damage 0-100; topramezone 25 g ai/ha (1x), 7 DAT
row,Molecule,Scores
1,B1,100
2,B2,58
3,B3,40
4,B4,100
5,B5,100
6,B6,50

# Same assay, conditions: HPPDs from different species; score for pesticide damage 0-100; topramezone 100 g ai/ha (4x), 7 DAT
row,Molecule,Scores
1,B1,100
2,B2,100
3,B3,100
4,B4,100
5,B5,100
6,B6,67

# Same assay, conditions: HPPDs from different species; topramezone 25 g ai/ha (1x), 7 DAT
row,Molecule,Resistance evaluation
1,B1,non-resistant (non-resistant plants (scores 68-100))
2,B2,poorly resistant (poorly resistant plants (scores 34-67))
3,B3,poorly resistant (poorly resistant plants (scores 34-67))
4,B4,non-resistant (non-resistant plants (scores 68-100))
5,B5,non-resistant (non-resistant plants (scores 68-100))
6,B6,poorly resistant (poorly resistant plants (scores 34-67))

# Same assay, conditions: HPPDs from different species; topramezone 100 g ai/ha (4x), 7 DAT
row,Molecule,Resistance evaluation
1,B1,non-resistant (non-resistant plants (scores 68-100))
2,B2,non-resistant (non-resistant plants (scores 68-100))
3,B3,non-resistant (non-resistant plants (scores 68-100))
4,B4,non-resistant (non-resistant plants (scores 68-100))
5,B5,non-resistant (non-resistant plants (scores 68-100))
6,B6,poorly resistant (poorly resistant plants (scores 34-67))
